{"source": "patent US20050079218A1", "about": "“Matrices for the stabilizing and controlled release of problematic substances” (priority 2001, published 2005)", "key": {"[1]": {"test_system": "U78 MG tumour", "assay": "efficacy of BCNU matrices in tumour-bearing nude mice (FIG. 2)", "type": "in vivo", "details": "U78 MG tumour subcutaneously inoculated", "protocol": "Thus the effectiveness of BCNU in tumour-bearing nude mice (U78 MG tumour subcutaneously inoculated) is the same for a lipid matrix according to the invention and for a conventional polyanhydride matrix, as shown in FIG. 2.\nIn FIG. 2, the area of the tumour is plotted in […] on the ordinate, and the time in days on the abscissa."}, "[2]": {"details": "cited from earlier work"}, "[3]": {"assay": "release of model substances from cylindrical lipid carrier systems with differing gelatin content (FIGS. 3 and 4)", "type": "physicochemical", "details": "phosphate buffer pH 7.4, 37° C.; for period of controlled release: lipid matrix with 0, 1, 5, 10 and 20% gelatin, cylindrical; for control of release via gelatin content: fluorescence intensity", "description": "FIGS. 3 and 4 show diagrams illustrating the dependence of the rate of release on the proportion of release-controlling substance in the carrier system according to the invention. In the embodiment shown in FIGS. 3 and 4, a lipid matrix composed of glycerol tripalmitate with differing gelatin contents […]. The carrier system used is cylindrical in shape.\nThe proportion of gelatin within the carrier system is 0, 1, 5, 10 and 20%.\nThe quantity released in percent is shown on the ordinate, and the time in days on the abscissa.\nSubstances used for the release from the carrier system (for example pyranine or tetramethylrhodamine-labelled bovine serum albumin (TAMRA-BSA) were dispersed in the desired quantity in an aqueous 15% (m/m) gelatin solution. 100-μl portions of this dispersion were pipetted into each opening in a 96-hole plate, and freeze-dried. The lyophilisate was comminuted in a mortar, and mixed with glyceryl trimyristate in a desired percentage. Powder mixtures with a content of up to 30% (m/m) of gelatin resulted. Cylindrical carrier systems were produced by compressing the corresponding proportions by weight of gelatin with lipid granulate. To this end, 7 mg of substance was produced in a 2-mm pressing tool using a compressive force of 250 N over 10 sec. In this way, carrier system charged with pyranine or fluorescence-labelled bovine serum albumin (TAMRA-BSA) were produced in the composition, as shown in Table 1.\n(§1) To test the release of model substances from carrier systems depending on the content of release-controlling substance, the cylinders obtained in Example 1 were incubated at 37° C. in 40 ml of phosphate buffer at pH 7.4. The release of the substances was monitored by measuring the fluorescence intensity. To this end, pyranine was excited at 407 nm and the emission measured over 436 nm. The TAMRA-BSA content was determined at a wavelength of 572 nm with excitation at 541 nm."}, "[4]": {"assay": "release of active hyaluronidase from carrier matrices in phosphate buffer, activity via Morgan-Elson reaction (FIG. 1)", "type": "physicochemical", "protocol": "The ordinate gives the release quantity of hyaluronidase in percent, and the abscissa the time in hours.\nas §1\nTo test the stabilising properties of the carrier systems, glyceryl trimyristate was worked up with hyaluronidase. To this end, 25 mg neopermease, a mixture of 200,000 IU hyaluronidase and gelatin, was mixed with 325 mg of lipid and compressed as described in Example 1 to form cylindrical carrier systems weighing 7 mg. The gelatin content of this mixture was approximately 7.1%. To determine the release of the enzyme, 5 matrices were incubated with phosphate buffer as described in Example 2, and the release determined by measuring the activity via the Morgan-Elson reaction (Muckenschnabel I., Cancer Lett. 131(1) (1998) 13 to 20)."}}, "data": [{"compound": "O=NN(CCCl)C(=O)NCCCl", "note": "[BCNU, carmustine]", "values": [{"measurement": "effectiveness (tumour area over time), lipid matrix versus conventional polyanhydride matrix", "setting": "[1]", "value": "the same"}, {"measurement": "half-life in plasma", "setting": "[2]", "value": "approximately 20 minutes"}]}, {"compound": "O=S(=O)([O-])c1cc(O)c2ccc3c(S(=O)(=O)[O-])cc(S(=O)(=O)[O-])c4ccc1c2c34.[Na+].[Na+].[Na+]", "note": "[pyranine]", "values": [{"measurement": "period of controlled release", "setting": "[3]", "value": "over a period of several weeks"}, {"measurement": "control of release via gelatin content", "setting": "[3]", "value": "optimally controlled via the gelatin content"}]}, {"compound": "TAMRA-BSA: bovine serum albumin fluorescence-labelled with tetramethylrhodamine", "values": [{"measurement": "period of controlled release", "setting": "[3]", "value": "over a number of weeks or months"}, {"measurement": "control of release via gelatin content", "setting": "[3]", "value": "optimally controlled via the gelatin content"}]}, {"compound": "hyaluronidase", "values": [{"measurement": "activity liberated from carrier system", "setting": "[4]; glyceryl trimyristate cylinders, gelatin approximately 7.1%, phosphate buffer pH 7.4, 37° C.", "value": "all the activity is liberated"}, {"measurement": "effect of release on the enzyme", "setting": "[4]; release from conventional system poly(1,3-bis[carboxyphenoxypropane]-sebacic acid) 20:80", "value": "inactivation"}, {"measurement": "activity of the enzyme achieved on release", "setting": "[4]; release from glyceryl tripalmitate matrix", "value": 100, "unit": "%"}]}]}
